How the values were obtained:
Conditions in all cases: other: flavonoid as substrate; substrate inhibition equation (2); 37.0 °C
not read [1] = substrate: O=C1C[C@@H](c2ccc(O)c(O)c2)Oc2cc(O)cc(O)c21; test: not read
not read [2] = substrate: COc1ccc([C@@H]2CC(=O)c3c(O)cc(O)cc3O2)cc1O; test: not read
not read [3] = substrate: Oc1cc(O)c2c(c1)O[C@H](c1ccc(O)c(O)c1)[C@H](O)C2; test: not read
[4] = substrate: O=C1C[C@@H](c2ccc(O)c(O)c2)Oc2cc(O)cc(O)c21; test: Sulfation of flavonoids by recombinant hSULT1A1; assay type: in vitro ADME, human
[5] = substrate: Oc1cc(O)c2c(c1)O[C@H](c1ccc(O)c(O)c1)[C@H](O)C2; test: Sulfation of flavonoids by recombinant hSULT1A1; assay type: in vitro ADME, human

| Protein | Km (not read [1]) [µM] | Vmax (not read [1]) [µmol/min/mg] | Vmax/Km (not read [1]) [µL/min/mg] | Km (not read [2]) [µM] | Km (not read [3]) [µM] | Vmax (not read [3]) [µmol/min/mg] | Vmax/Km (not read [3]) [µL/min/mg] | Km [4] [µM] | Vmax [4] [µmol/min/mg] | Vmax/Km [4] [µL/min/mg] | Km [5] [µM] | Vmax [5] [µmol/min/mg] | Vmax/Km [5] [µL/min/mg] | Vmax (not read [2]) [µmol/min/mg] | Vmax/Km (not read [2]) [µL/min/mg] |
| --- | --- | --- | --- | --- | --- | --- | --- | --- | --- | --- | --- | --- | --- | --- | --- |
| hSULT1A3 (Homo sapiens) (protein) MELIQDTSRPPLEYVKGVPLIKYFAEALGPLQSFQARPDDLLINTYPKSGTTWVSQILDMIYQGGDLEKCNRAPIYVRVPFLEVNDPGEPSGLETLKDTPPPRLIKSHLPLALLPQTLLDQKVKVVYVARNPKDVAVSYYHFHRMEKAHPEPGTWDSFLEKFMAGEVSYGSWYQHVQEWWELSRTHPVLYLFYEDMKENPKREIQKILEFVGRSLPEETMDFMVQHTSFKEMKKNPMTNYTTVPQELMDHSISPFMRKGMAGDWKTTFTVAQNERFDADYAEKMAGCSLSFRSEL | 193 ± 3.3 | 0.269 | 1390 | 179 ± 3.7 | 437 ± 10.1 | 0.442 | 1010 | – | – | – | – | – | – | – | – |
| hSULT1A1 (Homo sapiens) (protein) MELIQDTSRPPLEYVKGVPLIKYFAEALGPLQSFQARPDDLLISTYPKSGTTWVSQILDMIYQGGDLEKCHRAPIFMRVPFLEFKAPGIPSGMETLKDTPAPRLLKTHLPLALLPQTLLDQKVKVVYVARNAKDVAVSYYHFYHMAKVHPEPGTWDSFLEKFMVGEVSYGSWYQHVQEWWELSRTHPVLYLFYEDMKENPKREIQKILEFVGRSLPEETVDFVVQHTSFKEMKKNPMTNYTTVPQEFMDHSISPFMRKGMAGDWKTTFTVAQNERFDADYAEKMAGCSLSFRSEL | – | – | – | 63.0 ± 0.6 | – | – | – | 80.8 ± 3.3 | 0.0986 | 1220 | 301 ± 89.0 | 0.188 | 620 | 0.0927 | 1470 |
